Biological target: endogenous β-actin of the bovine neutrophil plasma membrane (bovine) (UniProt P60712)
Experiment: control of the co-immunoprecipitation, protein A-agarose beads

“nonspecific rabbit IgG (polyclonal serum or antibody)” showed a β-actin co-precipitated relative to the anti-pepA immunoprecipitate of less than 5%.

Source: patent publication US5985608
